Results as given in US7012128B2, “Interaction between cyclin D1 and steroid receptor co-activators and uses thereof in assays” (TopoTarget UK Limited, priority 1998, dated 2006).

Target: T1, ER (Homo sapiens, UniProt P03372)
T1 sequence (P03372 1-595): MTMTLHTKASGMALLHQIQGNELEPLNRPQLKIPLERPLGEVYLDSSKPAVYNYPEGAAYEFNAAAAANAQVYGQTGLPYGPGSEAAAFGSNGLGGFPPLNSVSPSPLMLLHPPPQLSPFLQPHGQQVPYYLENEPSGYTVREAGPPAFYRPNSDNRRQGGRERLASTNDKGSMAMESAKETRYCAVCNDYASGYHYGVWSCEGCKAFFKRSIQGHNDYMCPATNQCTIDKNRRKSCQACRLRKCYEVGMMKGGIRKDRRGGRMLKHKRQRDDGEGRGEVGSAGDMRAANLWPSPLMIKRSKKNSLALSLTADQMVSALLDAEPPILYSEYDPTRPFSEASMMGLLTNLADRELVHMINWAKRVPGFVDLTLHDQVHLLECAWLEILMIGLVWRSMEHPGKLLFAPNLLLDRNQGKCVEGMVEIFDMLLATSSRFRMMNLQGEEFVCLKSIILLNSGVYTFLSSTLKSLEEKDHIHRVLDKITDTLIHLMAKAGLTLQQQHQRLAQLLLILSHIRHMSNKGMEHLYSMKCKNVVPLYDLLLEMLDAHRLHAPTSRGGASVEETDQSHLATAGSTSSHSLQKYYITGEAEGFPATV
Assay: ER activation, ERE-reporter gene, in MCF-7 cells
Format: cell-based
Set-up: T47D and MCF-7, which contain endogenous wild type ER; endogenous in cells; host or cells: MCF-7; T47D
Details: MCF-7, relative high levels of cyclin D1; 17β-estradiol enriched medium
Text: The ER-containing T47D and MCF-7 breast cancer cells were maintained in 17β-estradiol enriched medium with 10%fetal calf serum after cotransfection with a cyclin D1 L254/255A mutant expression vector and an ERE-reporter gene for testing its effect on ER activation (left panel). ER transactivation in the absence of co-expression of the cyclin D1 mutant was set at 100%.
To get more insight in the role of cyclin D1 in ER transactivation in breast cancers with elevated levels of cyclin D1, we have tested the effect of the mutant cyclin D1 L254/255A on ER activation in two different breast cancer cell lines. This cyclin D1 mutant does bind to ER, but fails both to interact with SRC-1 as shown above and consequently fails to activate ER (FIG. 1B). Therefore, this mutant can act as a dominant negative in cyclin D1-mediated ER transactivation as it binds to ER and fails to recruit coactivators. We tested the effect of this cyclin D1 mutant on ER activation in two breast cancer cell lines, T47D and MCF-7, which contain endogenous wild type ER, but differ in their cyclin D1 protein levels (FIG. 6). […] In contrast, in MCF-7, which contain relative high levels of cyclin D1 (FIG. 6), the cyclin D1 mutant inhibited up to 50% of ER activity. Thus, this dominant negative cyclin D1 mutant preferentially interferes with ER activation in breast cancer cells that have high levels of cyclin D1 protein.

inhibition of ER activity: up to 50%
Substance: Cyclin D1-LALA: cyclin D1 mutant in which leucines 254 and 255 were mutated to alanines; dominant negative
